Measurements from a protein production outcome set (Wang et al. 2014).

Test: label from the status in PepcDB records

| Sequence | protein production |
| --- | --- |
| RFGLPVNGALDQYSARAANILAGNLDNHPLLEITALDFRMKANSDVLIAVTGAPLTLTVGGRPCSQWEPVSVRAGESVSIRGIHRGLRAYLAIHGSIEAGTLLGSAAPDTVVGFGLQLQEGTTLLSRRSVSPVRQPYFDLPLFRLGLERPSMGSDLSVDVTDGPDVAEFGESGELLFTSEYVVSGRSNHIGLRLGGELPERTSSDEVLSRGVPVGAVEVPSREELLVLHRGRGVTAGYPVLAVVTSTGLDVLAQARPGDKVRFRKTTVAEATAAHRRSRAQ | failed |
| MTQTTVPVIFDLDGTLVDPAGGITGGISAALREMDLPVPEQAVLNSMVGPKLSDSLLHLADVPGELVDETIERYRRHYKETGIGQSKLYPGVFDLLEYFAETGRPVAVATQKPQSIARLVLEHHKIADFFVSIRGAADDESLKANTASGKVEIVGAALKDLHSQPAVMVGDRHQDVAGALANGLDCIGVSWGFAPDGELEEAGAVAVVSTALELRSKIEELDAVRAAALSEVQNDGSL | failed |
| MTTFTGHLTDAQAQRLVDGTLLEAEADEVLAHAGDCAECQALTESYRVLGDALGEALGALEVPELPRDFTAGVLSRIDARERAVRRERRFAAAILAAVLVAIGVTVVVAGAGTWAPAASRLAGGLGSAGEVLRLGAGLAGTLLSALRFPLALACTALAVPLLFALSRLIPSARAELA | failed |
| MKGLFKNKSRLPGEIVRQTRDLIALAESEEEETDARNSKRLGICAELCRNIRDLKSILYGNGEAEPVPEACLLLTQEFFRADTLRPLIKSIPKLDLEARKDATQIVANLQKQQVEFRLVASEYLESNLDVIDSLVEGIDHDHELALHYTGMLKECVRHQVVAKYILESKNLEKFFDYVQLPYFDVATDASKIFRELLTRHKSTVAEYLAKNYEWFFAEYNTKLLEKGSYFTKRQASKLLGDVLMDRSNSGVMVKYVSSLDNLRIMMNLLREPTKNIQLEAFHIFKLFVANENKPEDIVAILVANRTKILRLFADLKPEKEDVGFETDKALVMNEIATLSLLDIKTADR | failed |
| MDREAFVQTLTACRLCPRLVAWREEVVGRKRAFRGEPYWARPVPGFGDPEARILLFGLAPGAHGSNRTGRPFTGDASGAFLYPLLHEAGLSSKPESLPGDDLRLYGVYLTAAVRCAPPKNKPTPEELRACARWTEVELGLLPEVRVYVALGRIALEALLAHFGLRKSAHPFRHGAHYPLPGGRHLLASYHVSRQNTQTGRLTREMFLEVLMEAKRLAGL | not failed |
| MNKLNIKEYKTKAGEVRYILRGAYIGTDVLTGKQIKTDIRGRTKTGVKNELERLKNNFKKNGNTKGKESLETFEEVAESFFELYKLQRKIGSIDQMRSNLDNYTLPAFGNKRISKITTAQIQQQVIKWGKSAAAPLNGRQKRTTGQAKRYKLQFNIINRIFQHALSLGIIENNPCQSVIVPQVKVEQAKKEIKFYKKSELAKLFNYLESLKSGQWSNEYFKALLRLLVASGLRIGEAMALSWSDINFQNQTVSVSKTTVRRFQIQDTPKSNKSNRIISIDDKAIYVLKSWYFFQKKHFMKLGNPQQNLVFPKIEGGVMDYHNLIYKLNNIIKNAELPLLSFHGFRRSHASLCLNAEMSYKVIQERLGHSKLQLTMDLYSHLEPEKKNKELELFTKYANF | failed |
| MRIGGTTSPIASHSFYVATRGYMDKTQSEEKNRRPLAVRDLNFTKRIAVWLSQKQITPNQISLMSIAFALLGCAILAVYHYYPAPLWLILAALSIQARLLCNLFDGMVAVEGGKKTPAGELFNDVPDRIADPLLILGAGFVTTSALGMTLAWLCALLAVLTAYIRVLGVSIGGEADFQGPMAKQHRMALLTLSLLFIAALSLFDELPTFFAYTMDLTLIVMLIGLVLTVWRRLQHIYQFHAARASSSDHQGN | failed |
| MEGWDPNTKSTLTRIPLLTTKAGPRDGAAWTQRLKEEYKSLIAYTQMNKSNDNDWFRISASNPEGTRWTGKCWYVHNLLKYEFDLQFDIPITYPATAPELELPEIDGKTQKMYRGGKICLTVHFKPLWAKNCPRFGIAHALCLGLAPWLAAEIPILVDSGAIKHKDDAATSAES | failed |
| KFAYKVGIGLEVPFANTNIWSFQTGLNFISKGVKGDGVTDAWDVVDVTINQLYLELPLMVGARIHTASNFDLLFKGGPYLAYGVGGKTKIDGVSEKADTFGDDGLKRFDAGLGLGVAFEFGNIVVGVETGTSFTKVASGVSAHNLSALATIGYKF | failed |
| MAETVGMILCGGFGKRLRPLTEKIPKPLIEIKEGYTILDKQLFDLKNAGINTVYLLTGFLGERIEERYGDNYKGLRIEYVREEKPLGTLNAIRLGMEAIDGEKQCIIRNGDVVADLNIKKMIHLGEMSDYPLTMFITRMQSPYGIVETSGDKIINFREKPLLDYYINAGVYFSKGNLDFGDFESGDIEKTLFPLMAKENKLGYYREDGLFWMAIDTSKELEEIRKEYRNREDKPWGYEKILINTEKYLTKELFIREGYRTSFHYHEEKDETMYIISGSGYIEFDNRKEYFSKNDTIRIEPGERHSIVAMENTVLHEVSTPHLNDTVRVQDYYTRLEHHHHHH | not failed |
| MKNSEESSSSSEDTNNATDTNTSESQDISVNGPEKVGDVYEIDGGTAKVMAISNKETTVKTGPIQFTVKKVIAAVANEQLPFIDVQIESENTSDEVVRFRPSLAQLATSTGVQIDEPSLLESDRLLDEYVGKVNDSGSIIYVFDNEEDIKDLESIRLRISSPFNEDLKNLGDKLDLKINLEHLEHHHHHH | not failed |
| MLPSESTLLTNATILTGTGERINNGDILLVNGKVTQVGNNLSVEQATVIDMKGKWITPGIIDVHSHLGVYPNPEVLEHHHHHH | not failed |
| KLFPRLFGLYRHVADLYQKMKALHPIMNDTLNRQAERWGLGKIYLSEEEFCQSEEKEKIRMLQSDFYDRMWYRLDFRGKLGSAKSFQCYYFFFRHS | failed |
| MRDEAGSRGIVMQNASANALVPREAARAAPMADIQKIAQHMARLNVAALPRNYELFHEAIIGLNAGLAQDIAALGSQPQQPMLDELGLKYRLAGHCGLAGETSRNEASRMLRDVAERLAEGLRHKNAFARACGTILKSVSGQNDQSLAAFLSEIDYLTASLSTVLAAEMEIGAKLQDDIKTLETLERGISAMQSAAIADRITGLPNRIALNRTIADLYERQEGAAGSALIMVDIDNFTDLNDKYGTQAGNKLLKKLAGLLQKSIKKNDFVARTEGDEFALLFSNVGMQDAIAIAERLRASVEDNLVFATSDKTDRGRLTISIGVALSTDAATPGQLQANARVALLAAQSNPRLPVQAFGR | failed |
| DKIGIERFLFPLGLYSYFRWMKQYERDRGLFLSLLLSLLYESTHNFLSVIFSSITGDNFVLQY | failed |
| MDRLKAMQVFVEVADRGSLSAAAMHLGMSRAMVSRYLAELEAWVGVRLLHRTTRRLSLTPAGSETLPRCRRMLEMVGDMREAVAAPDAEPRGLLRVTAAMSFGGAQLAEAVAEFVRRHPAASIDLLLVDRAVNLVEERVDLAVRITNDLDPNLIGRRLADCRSVVCAAPQYLQQHGAPARAEDLSLHNCLTHSYFGRSLWRFERAGEPVEVPVGGNITANETDVLMRAALAGAGIVMLPTYLAAGQIAAGTLRPLLPDCAPPVLGIHGVYVSRKQMPLILRTMLDFLAERFNPAPWDAALEGR | failed |
| YGNVWPWKSYEHVVAIAGGIGIPPIKALIEDMQGHTSLDKLTVLYGARSPSDIVYRSEIETWKEEMDFRITVDKGDENWRGHVGVVTTLVPEIKEYNHGAAFVIGPPVMMKFSVKSLLDAGFAEDNIYLSLERRMECG | failed |
| MANLPTVLVTGASGRTGQIVYKKLKEGSDKFVAKGLVRSAQGKEKIGGEADVFIGDITDADSINPAFQGIDALVILTSAVPKMKPGFDPTKGGRPEFIFEDGQYPEQVDWIGQKNQIDAAKVAGVKHIVVVGSMGGTNPDHPLNKLGNGNILVWKRKAEQYLADSGTPYTIIRAGGLLDKEGGVRELLVGKDDELLQTDTKTVPRADVAEVCIQALLFEEAKNKAFDLGSKPEGTSTPTKDFKALFSQVTSRF | not failed |
| TTQKGHRQKSFYRGVRAEKWAAWWLRCKGFHIAEIRFKTKCGEIDLIARRGNLVLIVEVKARSTLAEAMAAVSRVNERRIEAAADIWLARQKDRALLCVRFDLIAILPWRWPQHIPAFFM | failed |
| MPLLQKRVIVSNKREKVINDRRSRQQTVTPAGSEMRYEASFRPENGGLEVVFRLDAPQYHALSVGDRGMLSYKGTAFVAFTPDPLEHHHHHH | not failed |
| MPVTEKDLAEDAPWKKIQQNTFTRWCNEHLKCVNKRIGNLQTDLSDGLRLIALLEVLSQKRMYRKYHQRPTFRQMQLENVSVALEFLDRESIKLVSIDSKAIVDGNLKLILGLVWTLILHYSISMPVWEDEGDDDAKKQTPKQRLLGWIQNKIPYLPITNFNQNWQDGKALGALVDSCAPGLCPDWESWDPQKPVDNAREAMQQADDWLGVPQVITPEEIIHPDVDEHSVMTYLSQF | failed |
| MIYMDVYMNSYFPHNLDTENSIIDLSKWQELADLIVDIFGADCGAIIKFTGHSFTTMLSSRNEASFLHQGTEWSSDSKSFCRTIIKTGKPLYIANAVEDEYWFDAPPVVNGPVRSYCGVPIFSPDGSIYGTICAIDTKSTRYEDALTKLLLHLSKLITSDLKIAEKAEQHRLMALTDQTTGLLNRRGLNVLSEQKFKDAKRNQDHIGVLYLDIDNLKIINDNFGHLAGDKCIKLLATILKKMVRQSDLIARIGGDEFTVLALINSENTNELDHLSMRIREVYQNEIKDNAELNMSNISIGQHLVSYDSNASLKEMLAKADSLMYQEKIDKS | failed |
| MLLSVIITAQGRKGYVMQAVRSVLSQNIPKEDFEIIVSKDFKDDVIDEFLDGRAIVLNENHIRSGSRVASAVLQSSGKILVFLDDDDLFYPGKLREVKIVFSEMGVDYFKNSVKPVAESGDTVSYYQPAIKSDIFVKEPNEQDIRKLLKLRAGFNSSSISLKKDILVGYLDVLSKINLAVDSFYFFLYMSHSRPIYYSKKTLSLYRVLSKSTSRDVRNINAYAEFKSKFYELYSRDFETISEMASDGPCSKLAKTEFHLQMAYKWIFNTYRKEERPRMLHTLASSIYSHDPFIALPWPSFMKKIVQRREYFREKKLLSENTELEHHHHHH | failed |
| LNLPYDEHADAWTQVKKALAAGKRTHKPTLLVFGANWCTDCRALDKSLRNQKNTALIAKHFEVVKIDVGNFDRNLELSQAYGDPIQDGIPAVVVVNSDGKVRYTTKGGELANARKMSDQGIYDFFAKITE | not failed |
| MAEILRLSPAICAYPDETYENLKIEVVLPGVEKENISFKVVEDGFYVKATKEGVEYTDSYAVCCPISPEKATATYSNGVLKVNVPYQQPFEKAVDVKIE | failed |
| MASNRGAGGSLYGGADPYRSREGLSTRNASGSEEIQLRIDPMHSDLDDEILGLHGQIAQEIGSEAKSQRDFLDELQMTLIRAQAGVKNNIRKLNLSIIRSGNNHIMHVVLFALLLFFILYMWSKMFKR | failed |
| MYETFMKRAIELAKKGLGRVNPNPPVGAVVVKDGRIIAEGFHPYFGGPHAERMAIESARKKGEDLRGATLIVTLEPCDHHGKTPPCTDLIIESGIKTVVIGTRDPNPVSGNGVEKFRNHGIEVIEGVLEEEVKKLCEFFITYVTKKRPFVALKYASTLDGKIADHRGDSKWITDKLRFKVHEMRNIYSAVLVGAGTVLKDNPQLTCRLKEGRNPVRVILDRKGVLSGKVFRVFEENARVIVFTESEEAEYPPHVEKALSDCSVESILRNLYERDIDSVLVEGGSKVFSEFLDHADVVFGFYSTKIFGKGLDVFSGYLSDVSVPPKFKVVNVEFSDSEFLVEMRPCSRE | not failed |
| MPAIFTHEGKVEGVPGNYPLTAENLFRIGLALCTLWILDKEIEEPTLSIPETNFVTLALSVGFMNAGGSVNVGKGGDIKLFLQKGEIYVLEFQPLSETDIKKLESILFGRAPIPKKTGEDIGSFKC | not failed |
